One block for each molecule: values may come before it.
How the values were obtained:
[1] = target: monkey CD47 on monkey erythrocytes (monkey); assay: flow cytometry on monkey erythrocytes
[2] = target: T1, human CD47 on cells (human, UniProt Q08722 19-323); assay: flow cytometry on SW620 cells
T1 construct: whole, on cells; also called CHO-CD47 cells; MKN-45
Description: (§1) First, the inventors verified the expression of CD47 in the above 3 cell lines using flow cytometry. Serially diluted solutions of anti-human CD47 detection antibody (eBioscience, 17-0479-42) and APC isotype (eBioscience, 17-4714-41), anti-huIgG 633 (life technologies, A21091) were prepared with PBS to formulate 2× working solutions at final concentrations. The three tumor cells were collected, washed with PBS once, counted, and diluted to 4×10⁶/mL cell suspension. For each cell line, 50 μL of the antibody working solution was added into 50 μL of cell suspension, and the mixture was incubated at 4° C. in the dark for 30 min. After washing twice with PBS, a corresponding fluorescence-labeled secondary antibody (anti-huIgG 633) was added, and the mixture was incubated for 30 min at 4° C. in the dark, washed twice with PBS, and suspended with 400 μL of FACS buffer. The binding of the antibodies to the cells was detected by a flow cytometer.
(§2) The method is the same as above.

[3] = target: T2, human CD47 protein (human, UniProt Q08722 19-139, limits assumed); assay: SPR (Biacore T200), antibody captured on protein A chip, CD47 protein in solution
Description: The affinity of antigen-antibody binding was measured by SPR (surface plasma resonance). […] During the dissociation phase, elution was continued for 360 s with HBS-EP buffer. The binding of CD47 to the antibody on the sensor chip was quantitatively determined using Biacore T200 (GE Healthcare).

[4] = target: T2, human CD47 protein; assay: ELISA, plate coated with human CD47 protein
Description: The next day, the plate was washed 3 times with 300 μL of PBST (Tween 20: 0.5‰), then blocked with 5% BSA/PBS at 100 μL/well for 2 h, and shaken at room temperature. The plate was then washed with 300 μL of PBST 3 times. The antibody samples prepared with PBS were serially diluted, added to a 96-well plate at 100 μL/well and shaken for 1 h at room temperature. The plate was then washed with 300 μL of PBST 3 times. A secondary goat anti-mouse IgG HRP or goat anti-human IgG HRP solution was prepared, added to a 96-well plate at 100 μL/well and shaken for 1 h at room temperature. The plate was then washed with 300 μL of PBST 4 times. TMB was added at 100 μL/well for 20 min of chromogenesis. The chromogenesis was terminated by adding 0.6 N H₂SO₄ at 100 μL/well and the OD_{450 nm} was detected.

[5] = target: T1, human CD47 on cells; assay: flow cytometry, inhibition of SIRPα-mFc binding to CHO-CD47 cells
[6] = target: T1, human CD47 on cells; assay: flow cytometry on MKN-45 cells
Description: as §1, §2

[7] = target: T1, human CD47 on cells; assay: flow cytometry on A2780 cells
Description: as §1, §2

[8] = target: T1, human CD47 on cells; assay: flow cytometry on human erythrocytes; human erythrocytes, flow cytometry
Description: Erythrocytes were first isolated from the peripheral blood of volunteers and suspended in physiological saline to obtain an erythrocyte suspension with a concentration of 2%. Serially diluted antibody solutions were prepared with PBS to formulate 2× working solutions at final concentrations. 50 μL of the antibody working solution was added into 50 μL of erythrocyte suspension, and the mixture was incubated at 4° C. in the dark for 60 min. After washing twice with PBS, a corresponding fluorescence-labeled secondary antibody was added, and the mixture was incubated for 30 min at 4° C. in the dark, washed twice with PBS, and suspended with 400 μL of FACS buffer. The binding of the antibodies to the erythrocytes was detected by a flow cytometer. For erythrocyte agglutination detection, 50 μL of the antibody working solution was also added into 50 μL of erythrocyte suspension. The mixture was placed on a 96-well round bottom plate, let stand at room temperature for 2 h, observed and photographed.

[9] = target: monkey CD47 on monkey erythrocytes (monkey, UniProt A0A2K5X4H8 19-305); assay: flow cytometry on monkey erythrocytes
Sequence of monkey CD47 on monkey erythrocytes (A0A2K5X4H8 entry or part of it limits assumed): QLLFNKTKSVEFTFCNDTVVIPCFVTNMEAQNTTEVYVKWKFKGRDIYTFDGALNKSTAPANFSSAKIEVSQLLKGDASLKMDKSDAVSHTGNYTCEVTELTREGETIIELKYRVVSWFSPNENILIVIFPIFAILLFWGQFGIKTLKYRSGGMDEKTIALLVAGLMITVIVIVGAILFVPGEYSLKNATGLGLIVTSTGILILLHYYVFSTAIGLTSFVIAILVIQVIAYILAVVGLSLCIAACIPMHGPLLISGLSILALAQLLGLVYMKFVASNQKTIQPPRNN

Sequence of monkey CD47 on monkey erythrocytes (monkey) (A0A2K5 entry or part of it limits assumed): as the sequence (A0A2K5X4H8 entry or part of it limits assumed) above

EC50 [1]: 0.586 µg/mL
plateau [1]: 392
Molecule: positive control antibody Hu5F9

EC50 [2]: 0.126 µg/mL
Kd [3]: 0.19 nM
koff [3]: 0.000193 s⁻¹
kon [3]: 1.02e+06 M⁻¹ s⁻¹
EC50 [4]: 0.169 µg/mL
IC50 [5]: 2.4 µg/mL
EC50 [6]: 0.354 µg/mL
EC50 [7]: 0.119 µg/mL
EC50 [8]: 0.93 µg/mL
B1: humanized antibody UM03-C4 (antibody, human IgG4 S228P, kappa, V domains shown)
VH: QVQLVESGGGVVQPGGSLRLSCAASGFTFSDYGMAWIRQAPGKGPEWIAFITNLASSIYYADTVTGRFTISRDNSKNTLYLQMNSLRAEDTAVYYCARAGDYRSFPYWGQGTLVTVSA
VL: EIVLTQSPATLSLSPGERATLSCSASSSVNYVNWYQQKPGQAPRILIYGISNLASGVPARFSGSGSGTDFTLTISSLEPEDFAVYYCQQRSTFPPYTFGQGTKLEIKR
notes: expressed in HEK293 cells

EC50 [2]: 0.216 µg/mL
EC50 [4]: 0.25 µg/mL
IC50 [5]: 3.38 µg/mL
EC50 [6]: 0.381 µg/mL
EC50 [7]: 0.142 µg/mL
EC50 [8]: 1.21 µg/mL
EC50 [9]: 0.907 µg/mL
B2: human-mouse chimeric antibody UM03-L4 (antibody, human IgG4 S228P, kappa, V domains shown)
VH: EVKLVESGGDLVQPGGSRKLSCAASGFTFSDYGMAWIRQAPGKGPEWIAFITNLASSIYYADTVTGRFTISRENAKNTLYLEMSSLRSEDTAMYYCARAGDYRSFPYWGQGTPVTVSA
VL: EILLTQSPAIIAASPGEKVTITCSASSSVNYVNWYQQKPGSSPKIWIYGISNLASGVPARFSGSGSGTSFSFTINSMEAEDVATYYCQQRSTFPPYTFGGGTKLEIKR
notes: expressed in HEK293 cells

Reference: patent US20230167192A1 (SUZHOU ZELGEN BIOPHARMACEUTICALS, published 2023)
